In paper PMC7642358 (Nature Communications, 2020):

Biological target: SARS-CoV-2 spike receptor-binding domain (2019-nCoV RBD-SD1, residues 319–566) (SARS-CoV-2, UniProt P0DTC2)

Binder | binding result
54 (VHH) VHH: QVQLVESGGGLVQAGGSLRLSCAASGFPVWNTWMEWYRQAPGKEREWVAAITSYGFKTYYADSVKGRFTISRDNAKNTVYLQMNSLKPEDTAVYYCNVKDEGNSQSHYDYWGQGTQVTVS | binds
56 (VHH) VHH: QVQLVESGGGLVQAGGSLRLSCAASGFPVEMWSMEWYRQAPGKEREWVAAIMSFGYQTWYADSVKGRFTISRDNAKNTVYLQMNSLKPEDTAVYYCNVKDAGNSKALYDYWGQGTQVTVS | binds
57 (VHH) VHH: QVQLVESGGGLVQAGGSLRLSCAASGFPVEHDHMHWYRQAPGKEREWVAAIVSQGAYTVYADSVKGRFTISRDNAKNTVYLQMNSLKPEDTAVYYCNVKDWGRAGARYDYWGQGTQVTVS | binds
58 (VHH) VHH: QVQLVESGGGLVQAGGSLRLSCAASGFPVDAAWMEWYRQAPGKEREWVAAITSYGYRTYYADSVKGRFTISRDNAKNTVYLQMNSLKPEDTAVYYCNVKDMDRWRTTYDYWGQGTQVTVS | binds
60 (VHH) VHH: QVQLVESGGGLVQAGGSLRLSCAASGFPVVAWQMTWYRQAPGKEREWVAAIRSFGVSTHYADSVKGRFTISRDNAKNTVYLQMNSLKPEDTAVYYCNVKDWGYEYEGYDYWGQGTQVTVS | binds
61 (VHH) VHH: QVQLVESGGGLVQAGGSLRLSCAASGFPVQHEWMEWYRQAPGKEREWVAAITSYGYRTYYADSVKGRFTISRDNAKNTVYLQMNSLKPEDTAVYYCNVKDTGTYQAWYDYWGQGTQVTVS | binds
62 (VHH) VHH: QVQLVESGGGLVQAGGSLRLSCAASGFPVEQEHMYWYRQASGKEREWVAAIVSEGAYTAYADSVKGRFTISRDNAKNTVYLQMNSLKPEDTAVYYCNVKDWGGYQWYYDYWGQGTQVTVS | binds
63 (VHH) VHH: QVQLVESGGGLVQAGGSLRLSCAASGFPVNAEIMFWYRQAPGKEREWVAAIKSAGTTTLYADSVKGRFTISRDNAKNTVYLQMNSLKPEDTAVYYCNVKDYGAQAHYYDYWGQGTQVTVS | binds
64 (VHH) VHH: QVQLVESGGGLVQAGGSLRLSCAASGFPVYNRYMLWYRQAPGKEREWVAAITSYGYHTTYADSVKGRFTISRDNAKNTVYLQMNSLKPEDTAVYYCNVKDYGQHQQVYDYWGQGTQVTVS | binds
66 (VHH) VHH: QVQLVESGGGLVQAGGSLRLSCAASGFPEVNTWMEWYRQAPGKEREWVAAITSYGYRTYYADSVKGRFTISRDNAKNTVYLQMNSLKPEDTAVYYCNVKDEGSQSWAYDYWGQGTQVTVS | binds
67 (VHH) VHH: QVQLVESGGGLVQAGGSLRLSCAASGFPVMWAHMAWYRQAPGKEREWVAAIVSAGAYTHYADSVKGRFTISRDNAKNTVYLQMNSLKPEDTAVYYCNVKDWGTYNSYYDYWGQGTQVTVS | binds
68 (VHH) VHH: QVQLVESGGGSVQAGGSLRLSCAASGTITNIGYLGWFRQAPGKEREGVAALKTYDGYTYYADSVKGRFTVSLDNAKNTVYLQMNSLKPEDTALYYCAAARHGRDEPLSYMYYSYWGQGTQVTVS | binds
69 (VHH) VHH: QVQLVESGGGSVQAGGSLRLSCAASGYISEISYLGWFRQAPGKEREGVAALITGWGHTYYADSVKGRFTVSLDNAKNTVYLQMNSLKPEDTALYYCAAAQTGAWYPLETYIYHYWGQGTQVTVS | binds
